The values that follow come from IntAct's records for PubMed 18923430.

Sequences and labels used below:
B1: DnaJ homolog subfamily C member 3 (Mus musculus), Q91YW3 (parent)
chain: MVAPGSVGSRLGAVFPFLLVLVDLQYEGAECGVNADVEKHLELGKKLLAAGQLADALSQFHAAVDGDPDNYIAYYRRATVFLAMGKSKAALPDLTKVIALKMDFTAARLQRGHLLLKQGKLDEAEDDFKKVLKSNPSEQEEKEAESQLVKADEMQRLRSQALDAFDGADYTAAITFLDKILEVCVWDAELRELRAECFIKEGEPRKAISDLKAASKLKSDNTEAFYKISTLYYQLGDHELSLSEVRECLKLDQDHKRCFAHYKQVKKLNKLIESAEELIRDGRYTDATSKYESVMKTEPSVAEYTVRSKERICHCFSKDEKPVEAIRICSEVLQMEPDNVNALKDRAEAYLIEEMYDEAIQDYEAAQEHNENDQQIREGLEKAQRLLKQSQKRDYYKILGVKRNAKKQEIIKAYRKLALQWHPDNFQNEEEKKKAEKKFIDIAAAKEVLSDPEMRKKFDDGEDPLDAESQQGGGGNPFHRSWNSWQGFNPFSSGGPFRFKFHFN

In the assay the parent is B1. The note with it: with bip_human HSPA5, P11021.
Chain of bip_human HSPA5, P11021 (P11021 whole entry): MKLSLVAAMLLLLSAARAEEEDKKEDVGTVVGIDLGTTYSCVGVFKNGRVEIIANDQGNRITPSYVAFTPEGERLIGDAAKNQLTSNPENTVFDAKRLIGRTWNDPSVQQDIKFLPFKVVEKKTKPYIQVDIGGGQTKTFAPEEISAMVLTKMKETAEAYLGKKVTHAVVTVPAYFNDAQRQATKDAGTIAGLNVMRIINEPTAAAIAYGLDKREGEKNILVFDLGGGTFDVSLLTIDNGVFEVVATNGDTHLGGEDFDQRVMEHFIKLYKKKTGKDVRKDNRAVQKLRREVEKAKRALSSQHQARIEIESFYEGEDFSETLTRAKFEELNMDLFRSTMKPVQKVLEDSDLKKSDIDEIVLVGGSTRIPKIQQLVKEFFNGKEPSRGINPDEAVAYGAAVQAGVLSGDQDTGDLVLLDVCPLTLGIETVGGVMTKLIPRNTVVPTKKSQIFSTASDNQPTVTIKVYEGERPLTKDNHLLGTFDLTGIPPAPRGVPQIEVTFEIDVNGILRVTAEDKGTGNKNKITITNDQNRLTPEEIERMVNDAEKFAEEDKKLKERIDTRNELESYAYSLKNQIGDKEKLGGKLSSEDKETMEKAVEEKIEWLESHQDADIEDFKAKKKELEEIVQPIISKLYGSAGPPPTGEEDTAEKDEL
For the variant H422Q, the “effect of a mutation on the interaction” value is listed as “disrupting interaction”.
